From patent US20150152171, “Modulation of TLR4-Signaling Pathway” (Rheinisch-Westfalische Technische, published 2015) come the findings set out here.

The target of the data set is hnRNP K full-length (463 aa) (UniProt P61978 P61978:1-463). The data set is described as follows: competition; 2R competes hnRNP K binding to TAK1 fragments 3, 5.1 and Akt2 fragments 1, 2. The settings on record: tags: His. The method, then:
To analyze whether recombinant hnRNP K directly interacts with the Akt2 mRNA 3′UTR, UV-crosslinking experiments were performed with the [³²P]-labeled Akt2 mRNA 3′UTR subdivided in two fragments (1 and 2) (FIG. 19, lanes 1-5 and 6-10). Recombinant hnRNP K was bound strongly to both fragments (FIG. 19, lanes 1 and 6) and to the DICE, but not to the TAK1 mRNA 3′UTR fragment 4 that served as negative control (FIG. 19, lanes 11 and 12). Furthermore, it was investigated whether the short RNA consisting of 2 repeats of the DICE (2R) can be used to compete the binding of hnRNP K to the Akt2 mRNA 3′UTR fragments 1 and 2.

For CCCCACCCUCUUCCCCAAGCCCCACCCUCUUCCCCAAG (ssRNA) [2R (two DICE repeats, 38 nt)], the binding result is “binds”.
